The source of these data is patent US5084274A, “Inhibition of arterial thrombotic occlusion or thromboembolism” (Scripps Clinic and Research Foundation, priority 1987, dated 1992).

The test system of assay [1] is platelet deposition in the Dacron graft. Description: Platelet deposition (thrombus formation) in Dacron graft, arterial thrombosis model, 111In-labeled platelets. It is filed as in vivo, baboon. The note with it: 1 mg of t-PA (0.1 mg/kg/hour) infusion; previous studies, same model.
Procedure: Permanent arteriovenous shunts were prepared between the femoral artery and vein using 3 mm i.d. Silastic tubing Subsequent interposition of 5 cm long, 4 mm i.d. Dacron vascular grafts served as thrombogenic surface, inducing continuous platelet-fibrinthrombus formation until progressive occlusion of the graft at 70±20 min.
All baboons underwent at least one control experiment prior to APC administration. The APC was given by injecting one-fourth to one-third of the total PC dose as a bolus and the remaining three-fourths to two-thirds of the dose as continuous infusion for one hour. The interposition of the graft and bolus injection were made at time=0 and APC was administered at the proximal site of the Silastic shunt. The experiments were divided into three groups; the "low dose" APC group received 2.0-3.4 mg (total), the "high dose" APC group received 11 mg (total), and the combination group received 2.1 mg APC plus 1.3 mg t-PA (total).
Platelet Deposition in the Dacron Graft
The deposition of ^III In-labeled Platelets was detected by scintillation camera images of the graft. […] Inhibition of platelet deposition in treated animals was expressed as % of total number of platelets deposited in the control experiments at 30 and 60 minutes timepoints.
Assay [2] concerns acute myocardial infarction / occluded coronary arteries. The note with it: cited from earlier work.

B1: t-PA: t-PA from a melanoma cell line, provided by Dr. Desire Collen (Leuven, Belgium) (protein, UniProt P00750 36-562, looked up)
Tissue-type plasminogen …: SYQVICRDEKTQMIYQQHQSWLRPVLRSNRVEYCWCNSGRAQCHSVPVKSCSEPRCFNGGTCQQALYFSDFVCQCPEGFAGKCCEIDTRATCYEDQGISYRGTWSTAESGAECTNWNSSALAQKPYSGRRPDAIRLGLGNHNYCRNPDRDSKPWCYVFKAGKYSSEFCSTPACSEGNSDCYFGNGSAYRGTHSLTESGASCLPWNSMILIGKVYTAQNPSAQALGLGKHNYCRNPDGDAKPWCHVLKNRRLTWEYCDVPSCSTCGLRQYSQPQFRIKGGLFADIASHPWQAAIFAKHRRSPGERFLCGGILISSCWILSAAHCFQERFPPHHLTVILGRTYRVVPGEEEQKFEVEKYIVHKEFDDDTYDNDIALLQLKSDSSRCAQESSVVRTVCLPPADLQLPDWTECELSGYGKHEALSPFYSERLKEAHVRLYPSSRCTSQHLLNRTVTDNMLCAGDTRSGGPQANLHDACQGDSGGPLVCLNDGRMTLVGIISWGLGCGQKDVPGVYTKVTNYLDWIRDNMRP
As for B1, in assay [1], the “Antiplatelet effect (in words, FIG. 8)” value is given as “intermediate antiplatelet effect”. For the same molecule, in assay [2] (after successful thrombolytic reperfusion, despite full-dose heparin therapy), the “Patients with reocclusion after discontinuing t-PA infusion” value was “between one-four and one-third of patients”. Further, the “Thrombolysis in acute myocardial infarction (in words)” value in assay [2] (infusion into humans) was “effective thrombolysis”.
